Laboratory results reported in patent US20180244758A1 (MAPP BIOPHARMACEUTICAL, published 2018).
Substitutions are numbered along the chain they refer to.

B1: mAb PE-05 (antibody, V domains shown)
VH: QVQLQESGGGLVKPGRSLRLSCTASGFTFGDYAMSWFRQAPGKGLEWVGFLRSKAYGGTAEYAASVKGRFTMSRDDSKSIAYLQMNSLKTEDTAVYFCTRDGFRGSSWGYSYYGMDVWGQGTTVTVSS
VL: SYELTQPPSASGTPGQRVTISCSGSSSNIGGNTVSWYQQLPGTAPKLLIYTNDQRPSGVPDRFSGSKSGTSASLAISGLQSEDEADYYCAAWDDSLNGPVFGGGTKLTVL
B2: mAb PE-47 (antibody, V domains shown)
VH: EVQLVESGGGLVKPGGSLRLSCAASGFTFSNAWMSWVRQAPGEGLEWVGRIKSKTDGGTIDYAAPVKGRFTISRDDSKNTVYLQMTSLKTEDTAVYYCTTYTEDMQYFDWLLRGGETFDYWGQGTLVTVSS
VL: DIQMTQSPSSLSASVGDRVTITCRASQYISTYLNWYQQKPGKAPKLLIYAAYNLQSGVPSRFSGSGSGTDFTLTISSLQPEDFATYYCQQSYSTPGRYTFGQGTKVEIK
B3: mAb PE-87 (antibody, V domains shown)
VH: QVQLVQSGVTLVQPGGSLRVSCAASGFTFSSYAMSWVRQAPGKGLEWVSAISGLGGSTYYADSVKGRFTISRDNSKNTLYLQMNSLRAEDTAVYYCAKDHRVWAAGYHFDYWGQGALVTVSS
VL: DIVLTQSPSTLSASVGDRVTITCRASQSISSWLAWYQQKPGEAPKLLISDASSLESGVPSRFSGSGSGTEFTLTISSLQPDDFATYYCQQYYSSPTFGGGTKVEIK
B4: mAb PE-24 (antibody, V domains shown)
VH: EVQLVESGGGLVQPGGSLRLSCAASGFTFSSYAMSWVRQAPGKGLEWVSEISGLGGSTYYADSAKGRFTISRDNSKSTLYLQMNSLRAEDTAVYYCAKDHRVWAPGYYFDHWGQGTLVTVSS
VL: B3 VL with E42K, S49Y, Y87F, Y92N, S93R
B5: mAb PE-16 (antibody, V domains shown)
VH: QVQLVQSGAEVTKPGASVKVSCKASGYTFTTYYMHWVRQAPGQGLEWVGIINPSGGITRYAQKFQGRVTLTRDTSTTTVYMELSSLRSEDTAVYYCARDRYPVLFATDYGMDVWGQGTTVTVSS
VL: DIVMTQSPATLSLSPGERATLSCRASQSVSGYLAWYQQKPGQAPRLLIYDASNRATGIPARFSGSGSGTDFTLTISSLEPEDFAVYYCQQRSIWPPGVTFGGGTKVEIK

Columns and labels:
Test in all cases: cell-based or functional assay
[1] = molecular target: T1, TAFV GP on VSV pseudotype particles (Tai Forest virus (TAFV), UniProt Q66810 33-676)
T1 sequence: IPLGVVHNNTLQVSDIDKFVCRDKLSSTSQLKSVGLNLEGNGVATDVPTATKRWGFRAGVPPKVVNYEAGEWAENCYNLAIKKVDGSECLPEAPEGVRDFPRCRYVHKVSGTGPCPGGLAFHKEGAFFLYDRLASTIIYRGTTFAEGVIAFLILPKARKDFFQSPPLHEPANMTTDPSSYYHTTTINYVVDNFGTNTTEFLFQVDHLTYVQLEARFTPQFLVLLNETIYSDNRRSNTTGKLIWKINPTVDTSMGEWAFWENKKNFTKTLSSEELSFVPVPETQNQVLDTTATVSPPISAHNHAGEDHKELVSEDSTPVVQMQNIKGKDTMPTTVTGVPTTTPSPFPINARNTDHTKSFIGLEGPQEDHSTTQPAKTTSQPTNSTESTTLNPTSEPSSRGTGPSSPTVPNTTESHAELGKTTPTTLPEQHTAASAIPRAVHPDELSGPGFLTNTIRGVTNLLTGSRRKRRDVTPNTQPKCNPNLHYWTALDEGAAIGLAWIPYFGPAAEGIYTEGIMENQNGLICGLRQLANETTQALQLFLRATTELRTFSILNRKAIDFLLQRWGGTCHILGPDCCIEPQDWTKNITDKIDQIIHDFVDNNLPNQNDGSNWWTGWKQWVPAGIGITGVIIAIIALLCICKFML

[2] = molecular target: T2, EBOV GP on rVSV particles (Ebola virus (EBOV), UniProt Q05320 33-676)
T2 sequence: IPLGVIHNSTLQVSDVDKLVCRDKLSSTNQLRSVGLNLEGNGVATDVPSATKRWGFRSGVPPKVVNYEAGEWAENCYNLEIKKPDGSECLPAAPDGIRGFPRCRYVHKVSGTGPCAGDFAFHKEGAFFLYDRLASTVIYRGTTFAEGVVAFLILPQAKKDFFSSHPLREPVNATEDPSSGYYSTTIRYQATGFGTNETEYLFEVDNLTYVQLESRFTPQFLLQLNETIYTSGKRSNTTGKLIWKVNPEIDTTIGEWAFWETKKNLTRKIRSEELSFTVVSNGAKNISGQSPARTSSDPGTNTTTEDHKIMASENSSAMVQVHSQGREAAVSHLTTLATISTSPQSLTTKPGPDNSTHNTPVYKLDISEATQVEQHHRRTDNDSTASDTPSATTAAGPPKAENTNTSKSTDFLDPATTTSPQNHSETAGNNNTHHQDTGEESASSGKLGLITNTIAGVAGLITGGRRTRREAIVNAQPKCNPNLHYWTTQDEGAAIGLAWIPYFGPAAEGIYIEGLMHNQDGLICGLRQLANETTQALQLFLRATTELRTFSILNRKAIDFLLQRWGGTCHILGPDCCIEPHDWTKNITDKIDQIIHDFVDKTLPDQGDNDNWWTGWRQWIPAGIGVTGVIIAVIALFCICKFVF

[3] = molecular target: T3, GP of authentic (wild-type) EBOV (Ebola virus (EBOV), UniProt P87666 33-676)
T3 sequence: T2 sequence with V278A, G282R, S345P, L346P, S390P, P398L, S408G, F411L, T467A, I512T

[4] = molecular target: BDBV GP on rVSV particles (Bundibugyo virus (BDBV))
[5] = molecular target: T4, SUDV GP on rVSV particles (Sudan virus (SUDV), UniProt Q66814 33-676)
T4 sequence: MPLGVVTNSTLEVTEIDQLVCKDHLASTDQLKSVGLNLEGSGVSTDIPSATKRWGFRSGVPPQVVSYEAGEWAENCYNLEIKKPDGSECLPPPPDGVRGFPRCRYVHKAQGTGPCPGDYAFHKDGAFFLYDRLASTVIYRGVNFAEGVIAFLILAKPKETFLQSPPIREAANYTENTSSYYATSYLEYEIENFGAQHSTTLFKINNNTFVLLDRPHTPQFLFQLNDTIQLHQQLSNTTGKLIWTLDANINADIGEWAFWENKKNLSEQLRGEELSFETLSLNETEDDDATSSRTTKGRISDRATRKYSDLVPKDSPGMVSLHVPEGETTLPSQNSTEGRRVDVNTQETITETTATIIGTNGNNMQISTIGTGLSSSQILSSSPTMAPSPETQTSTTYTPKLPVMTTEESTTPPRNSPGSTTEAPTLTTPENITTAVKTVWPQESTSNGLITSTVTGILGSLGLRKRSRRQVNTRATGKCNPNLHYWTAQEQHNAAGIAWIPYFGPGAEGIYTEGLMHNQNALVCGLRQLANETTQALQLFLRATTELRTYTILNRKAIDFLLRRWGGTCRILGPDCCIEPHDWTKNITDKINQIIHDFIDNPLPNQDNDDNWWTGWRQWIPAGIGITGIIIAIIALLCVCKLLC

[6] = molecular target: T5, GP of authentic (wild-type) SUDV (Sudan virus (SUDV), UniProt Q66814 33-676)
T5 sequence: T4 sequence

[7] = molecular target: GP of authentic (wild-type) BDBV (Bundibugyo virus (BDBV))
[8] = molecular target: T6, EBOV GPCL on cleaved VSV-GP particles (Ebola virus (EBOV), UniProt Q05320 33-676)
T6 sequence: T2 sequence

| Binder | Neutralization (VSV-GP IC50, nM) [1] [nM] | Neutralization (VSV-GP IC50, nM) [2] [nM] | Microneut. WT IC50 [3] [nM] | Neut. WT EBOV PRNT50 [3] [nM] | Neutralization (VSV-GP IC50, nM) [4] [nM] | Neutralization (VSV-GP IC50, nM) [5] [nM] | Microneut. WT IC50 [6] [nM] | Microneut. WT IC50 [7] [nM] | Neutralization (VSV-GP IC50, nM) [8] [nM] |
| --- | --- | --- | --- | --- | --- | --- | --- | --- | --- |
| B1 | 0.8 | 8.8 | 7.7 | 4 | 3.7 | 34 | – | – | – |
| B2 | 6.1 | 6.6 | 0.7 | – | 0.4 | 5.1 | < 0.1 | 0.5 | 0.08 |
| B3 | 1 | 0.5 | 0.3 | < 0.05 | 0.5 | 0.3 | 0.3 | 0.4 | 0.2 |
| B4 | 1.5 | 1.8 | 1 | 0.4 | 0.8 | 0.5 | 0.4 | 0.3 | 0.6 |
| B5 | 4.8 | 0.2 | 0.05 | < 0.02 | 0.6 | – | – | 0.2 | 5.7 |
